In patent US20070160576A1, “IL-17A/F heterologous polypeptides and therapeutic uses thereof” (Genentech, Inc., priority 2001, published 2007):

What was measured:
[1] = target: T1, PRO5801 (human IL-17RH1 receptor) as tested in the receptor/ligand screen (human, UniProt Q9NRM6 18-292, limits assumed); assay: receptor/ligand screen, FIG. 14
T1 sequence (looked up): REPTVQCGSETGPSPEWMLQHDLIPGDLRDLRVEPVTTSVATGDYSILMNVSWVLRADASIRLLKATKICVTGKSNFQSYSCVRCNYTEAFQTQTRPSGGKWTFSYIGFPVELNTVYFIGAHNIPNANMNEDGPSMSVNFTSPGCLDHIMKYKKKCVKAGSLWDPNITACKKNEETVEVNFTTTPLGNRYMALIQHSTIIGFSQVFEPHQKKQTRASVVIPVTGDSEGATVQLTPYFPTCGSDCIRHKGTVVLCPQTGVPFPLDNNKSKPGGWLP
From the text: (§1) A PRO polypeptide of the present invention suspected of being a ligand for a receptor is expressed as a fusion protein containing the Fc domain of human IgG (an immunoadhesin). Receptor-ligand binding is detected by allowing interaction of the immunoadhesin polypeptide with cells (e.g. Cos cells) expressing candidate PRO polypeptide receptors and visualization of bound immunoadhesin with fluorescent reagents directed toward the Fc fusion domain and examination by microscope. Cells expressing candidate receptors are produced by transient transfection, in parallel, of defined subsets of a library of cDNA expression vectors encoding PRO polypeptides that may function as receptor molecules. Cells are then incubated for 1 hour in the presence of the PRO polypeptide immunoadhesin being tested for possible receptor binding. The cells are then washed and fixed with paraformaldehyde. The cells are then incubated with fluorescent conjugated antibody directed against the Fc portion of the PRO polypeptide immunoadhesin (e.g. FITC conjugated goat anti-human-Fc antibody). The cells are then washed again and examined by microscope. A positive interaction is judged by the presence of fluorescent labeling of cells transfected with cDNA encoding a particular PRO polypeptide receptor or pool of receptors and an absence of similar fluorescent labeling of similarly prepared cells that have been transfected with other cDNA or pools of cDNA. If a defined pool of cDNA expression vectors is judged to be positive for interaction with a PRO polypeptide immunoadhesin, the individual cDNA species that comprise the pool are tested individually (the pool is “broken down”) to determine the specific cDNA that encodes a receptor able to interact with the PRO polypeptide immunoadhesin.
(§2) In another embodiment of this assay, an epitope-tagged potential ligand PRO polypeptide (e.g., 8 histidine “His” tag) is allowed to interact with a panel of potential receptor PRO polypeptide molecules that have been expressed as fusions with the Fc domain of human IgG (immunoadhesins). Following a 1 hour co-incubation with the epitope tagged PRO polypeptide, the candidate receptors are each immunoprecipitated with protein A beads and the beads are washed. Potential ligand interaction is determined by Western blot analysis of the immunoprecipitated complexes with antibody directed towards the epitope tag.

[2] = target: T2, PRO20040 (human IL-17RH2 receptor) (human, UniProt Q8NAC3-3 21-452); assay: receptor/ligand screen, FIG. 14
T2 sequence (looked up): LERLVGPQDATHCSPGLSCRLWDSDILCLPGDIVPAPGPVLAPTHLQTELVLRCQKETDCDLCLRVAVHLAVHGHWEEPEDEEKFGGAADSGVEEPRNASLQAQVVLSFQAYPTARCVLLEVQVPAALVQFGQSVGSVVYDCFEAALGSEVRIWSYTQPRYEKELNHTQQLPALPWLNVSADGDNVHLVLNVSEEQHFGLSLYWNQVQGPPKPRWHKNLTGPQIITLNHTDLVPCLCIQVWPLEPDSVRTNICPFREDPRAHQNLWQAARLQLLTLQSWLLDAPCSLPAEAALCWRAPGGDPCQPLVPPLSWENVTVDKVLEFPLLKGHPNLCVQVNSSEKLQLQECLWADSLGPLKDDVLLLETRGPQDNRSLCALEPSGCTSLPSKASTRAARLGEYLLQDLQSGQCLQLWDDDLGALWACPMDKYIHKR
From the text: as §1, §2

[3] = target: T3, Cos cells transfected with IL-17R (Homo sapiens, UniProt Q96F46); assay: Binding to Cos cells transfected with IL-17R; assay type: cell-based; conditions: data not shown
T3 construct: expressed in transfected cells; host or cells: Cos cells

[4] = target: T4, IL-17RH1 (PRO5801) (Homo sapiens, UniProt Q9NRM6); assay: SPR (BIAcore) binding measurements; conditions: IL-17RH1 up to 0.5 ┘M
T4 construct: the extracellular domains (ECDs) of either of the two receptors IL-17R (designated PRO1) and IL-17RH1 (PRO5801)
T4 sequence (Q9NRM6 18-292 limits assumed): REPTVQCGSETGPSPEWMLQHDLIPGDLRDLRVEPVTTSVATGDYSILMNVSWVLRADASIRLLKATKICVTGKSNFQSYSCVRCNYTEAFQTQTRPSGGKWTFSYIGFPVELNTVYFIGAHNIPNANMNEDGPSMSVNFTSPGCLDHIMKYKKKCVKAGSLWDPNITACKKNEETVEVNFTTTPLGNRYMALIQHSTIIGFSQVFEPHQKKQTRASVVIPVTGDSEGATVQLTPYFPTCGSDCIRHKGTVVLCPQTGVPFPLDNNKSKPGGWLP
Experimental: (§3) The kinetics and affinity of IL-17, IL-17E (PRO10272), or IL-17F (PRO20110) binding to IL-17R or IL-17RH1 (PRO5801) were determined by SPR measurements on a Pharmacia BIAcore 1000 instrument (Phamacia Biosensor, Piscataway N.J.). IL-17 ligand or receptor was immobilized onto a flow cell of a CM5 sensor chip via random coupling to amino groups, N-hydroxysuccinimide chemistry, by using a protocol developed by the manufacturer. An immobilization level of about 500 resonance units (RU) was obtained for IL-17R, IL-17RH1, and IL-17F, whereas IL-17 and IL-17E immobilization levels were 1200 and 1500 RU, respectively. A strong signal was obtained for IL-17R binding to immobilized IL-17. […] After blocking unreacted sites with ethanolamine, binding measurements were performed using a flow rate of 25 ┘L/min. Sensorgrams-were obtained for a series of six, two-fold serially diluted protein solutions. The highest concentration used was 1000 or 500 nM protein and the solutions were prepared in the running buffer, PBS containing 0.05% Tween-20. The sensor chip surface was regenerated between binding cycles by injection of a 25 ┘L aliquot of 0.1 M acetic acid, 0.2 M NaCl, pH 3 to elute non-covalent bound protein. Sensorgrams were evaluated according to a 1:1 binding model by non-linear regression analysis using software supplied by the manufacturer. In separate experiments to measure competition between IL-17 variants for binding receptors, a fixed concentration of receptor was incubated with a varied concentration of IL-17 protein followed by injection of this mixture onto a flow cell having immobilized IL-17 protein. The amount of bound receptor was determined from the resonance signal obtained after completion of the association phase.

[5] = target: T5, IL-17R (Homo sapiens, UniProt Q96F46); assay: SPR (BIAcore) binding measurements; conditions: IL-17R up to 1 ┘M
T5 construct: the extracellular domains (ECDs) of either of the two receptors IL-17R (designated PRO1) and IL-17RH1 (PRO5801)
Experimental: as §3

[6] = target: T5, IL-17R; assay: SPR competition for receptor binding to immobilized IL-17; conditions: IL-17R 500 nM; IL-17F at 2 ┘M
Experimental: as §3, with “The sensor chip surface was regenerated between binding cycles by injection of a 25 ┘L aliquot of 0.1 M acetic acid, 0.2 M NaCl, pH 3 to elute non-covalent bound protein.” left out, “In separate experiments to measure competition between IL-17 variants for binding receptors, a fixed concentration of receptor was incubated with a varied concentration of IL-17 protein followed by injection of this mixture onto a flow cell having immobilized IL-17 protein.” left out, “phase. […]” for “phase.”

[7] = target: T6, IL-17RH1 (Homo sapiens, UniProt Q9NRM6); assay: SPR competition for receptor binding to immobilized IL-17E; conditions: IL-17RH1 31 nM; IL-17F at 1.3 ┘M
T6 construct: the extracellular domains (ECDs) of either of the two receptors IL-17R (designated PRO1) and IL-17RH1 (PRO5801)
T6 sequence (Q9NRM6 18-292 limits assumed): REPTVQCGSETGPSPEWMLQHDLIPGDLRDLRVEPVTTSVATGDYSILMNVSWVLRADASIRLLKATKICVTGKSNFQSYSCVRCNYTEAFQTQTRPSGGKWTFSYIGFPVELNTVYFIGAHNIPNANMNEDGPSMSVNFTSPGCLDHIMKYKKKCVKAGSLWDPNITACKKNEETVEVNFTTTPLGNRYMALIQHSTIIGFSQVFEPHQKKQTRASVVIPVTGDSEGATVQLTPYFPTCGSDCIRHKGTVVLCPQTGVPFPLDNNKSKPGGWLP
Experimental: as §3, with “The sensor chip surface was regenerated between binding cycles by injection of a 25 ┘L aliquot of 0.1 M acetic acid, 0.2 M NaCl, pH 3 to elute non-covalent bound protein.” left out, “In separate experiments to measure competition between IL-17 variants for binding receptors, a fixed concentration of receptor was incubated with a varied concentration of IL-17 protein followed by injection of this mixture onto a flow cell having immobilized IL-17 protein.” left out, “phase. […]” for “phase.”

| Molecule | binding result [1] | binding result [2] | binding to Cos cells transfected with IL-17R [3] | binding of IL-17RH1 to immobilized IL-17F [4] | binding of IL-17R to immobilized IL-17F [5] | competition for binding of IL-17R to immobilized IL-17 [6] | competition for binding of IL-17RH1 to immobilized IL-17E [7] |
| --- | --- | --- | --- | --- | --- | --- | --- |
| PRO21175 (IL-17D ligand) (ligand, UniProt Q8TAD2 16-202, looked up) AGAPRAGRRPARPRGCADRPEELLEQLYGRLAAGVLSAFHHTLQLGPREQARNASCPAGGRPADRRFRPPTNLRSVSPWAYRISYDPARYPRYLPEAYCLCRGCLTGLFGEEDVRFRSAPVYMPTVVLRRTPACAGGRSVYTEAYVTIPVGCTCVPEPEKDADSINSSIDKQGAKLLLGPNDAPAGP | no binding | no binding | – | – | – | – | – |
| IL-17F: human IL-17F ligand, SEQ ID NO:4 (protein, listed as Homo sapiens) MTVKTLHGPAMVKYLLLSILGLAFLSEAAARKIPKVGHTFFQKPESCPPVPGGSMKLDIGIINENQRVSMSRNIESRSTSPWNYTVTWDPNRYPSEVVQAQCRNLGCINAQGKEDISMNSVPIQQETLVVRRKHQGCSVSFQLEKVLVTVGCTCVTPVIHHVQ | – | – | enhanced binding | no binding | no binding | no competition | could not block binding |
| PRO1122 (IL-17C ligand) (ligand, UniProt Q9P0M4 19-197, looked up) HHDPSLRGHPHSHGTPHCYSAEELPLGQAPPHLLARGAKWGQALPVALVSSLEAASHRGRHERPSATTQCPVLRPEEVLEADTHQRSISPWRYRVDTDEDRYPQKLAFAECLCRGCIDARTGRETAALNSVRLLQSLLVLRRRPCSRDGSGLPTPGAFAFHTEFIHVPVGCTCVLPRSV | no binding | no binding | – | – | – | – | – |
